Experimental findings from article PMC3734082 (The Journal of Cell Biology, 2013) are described below.

Residue numbers refer to the chain shown, from its start.

The target in one test is T1, MBP-CHC(1–1074)-His6 (UniProt Q00610 1-1074).
T1 sequence (looked up): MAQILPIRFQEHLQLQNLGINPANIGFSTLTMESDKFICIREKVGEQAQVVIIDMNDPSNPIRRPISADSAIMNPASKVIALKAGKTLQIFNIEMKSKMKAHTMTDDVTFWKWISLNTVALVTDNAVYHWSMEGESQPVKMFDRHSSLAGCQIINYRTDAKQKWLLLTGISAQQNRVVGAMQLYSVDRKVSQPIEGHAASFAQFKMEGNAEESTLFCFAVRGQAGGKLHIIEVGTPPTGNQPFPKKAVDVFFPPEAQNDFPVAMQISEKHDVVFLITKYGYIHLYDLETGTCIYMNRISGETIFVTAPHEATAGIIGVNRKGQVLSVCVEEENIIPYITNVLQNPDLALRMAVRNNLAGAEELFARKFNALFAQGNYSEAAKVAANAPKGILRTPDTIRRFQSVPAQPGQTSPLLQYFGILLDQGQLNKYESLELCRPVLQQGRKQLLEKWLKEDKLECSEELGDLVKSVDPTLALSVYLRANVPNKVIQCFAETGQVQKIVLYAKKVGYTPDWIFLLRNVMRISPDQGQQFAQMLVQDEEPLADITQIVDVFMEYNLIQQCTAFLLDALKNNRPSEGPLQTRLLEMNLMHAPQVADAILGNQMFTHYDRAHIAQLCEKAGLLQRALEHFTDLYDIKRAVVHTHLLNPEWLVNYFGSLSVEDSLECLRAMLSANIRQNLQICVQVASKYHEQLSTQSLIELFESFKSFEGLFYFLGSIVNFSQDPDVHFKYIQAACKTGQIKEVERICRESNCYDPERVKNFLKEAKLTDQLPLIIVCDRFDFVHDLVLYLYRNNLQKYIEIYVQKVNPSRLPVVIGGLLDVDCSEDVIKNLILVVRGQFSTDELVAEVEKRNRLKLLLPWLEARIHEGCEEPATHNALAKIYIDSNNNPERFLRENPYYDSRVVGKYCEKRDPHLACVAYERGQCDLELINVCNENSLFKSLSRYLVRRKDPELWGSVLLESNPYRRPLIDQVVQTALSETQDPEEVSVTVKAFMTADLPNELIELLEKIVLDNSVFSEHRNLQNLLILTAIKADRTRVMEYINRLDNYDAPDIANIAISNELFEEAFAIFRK
Nature of the test: pull-down.

Test [1] deals with T2, MBP-CHC(1–1074)-His6 C+ mutant (UniProt Q00610 1-1074, T87A | Q89A | K96E | K98E).
T2 sequence (looked up): T1 sequence (looked up) with T87A, Q89A, K96E, K98E
Nature of the test: pull-down.

B1: GST-TACC3-His6, phosphorylated with Aurora A/TPX2 (natural protein)
chain: not shown
modifications: phosphorylated in vitro with Aurora A/TPX2 (phosphoserine at 558, pS558)
Consider B1, for which the binding result (in the test with MBP-CHC(1–1074)-His6; in test [1]) was “binds” throughout.
